According to patent publication US8288112B2, “Protein, an antibody and measurement of the protein” (P&M Venge AB, priority 2006, dated 2012):

Columns and labels:
[1] = Positional specificity (sn-2) assay with radiolabeled phosphatidylcholine; assay type: biochemical; settings: 1-palmitoyl-2-[1-14C]palmitoyl-PC, 20 h at 37° C.
Procedure: Positional specificity of the purified enzyme was determined using 1-palmitoyl-2-hydroxyl-phosphatidylcholine (1-palmitoyl-2-hydroxyl-PC) and 1-palmitoyl-2-[1-^14C]palmitoyl-phosphatidylcholine (1-palmitoyl-2-[1-^14C]palmitoyl-PC) as substrates. The hydrolyzing activity of the enzyme at the position of sn-1 acyl ester bonds of glycerophospholipids was determined as described above using 1-palmitoyl-2-hydroxyl-PC as substrate. […] Radiolabeled fatty acids were quantified by scintillation counting.
Experiment D: Detection of phopholipase A2 activity. Radioactive phospholipid, 1-palmitoyl-2-[1-^14C]palmitoyl-PC was incubated without (Control) or with 1 μg of the purified protein (stored at 4° C. 16 w) for 20 h at 37° C. and radioactivity was counted as described in the materials and methods section.

[2] = Enzyme assay: free fatty acid release from phospholipid substrates (NEFA-C kit); assay type: biochemical; settings: for activity increase by pre-incubation with released materials from PMA-induced neutrophils: partly activated protein 0.5 μg stored for 19 weeks
Procedure: Enzyme assay. The reaction mixture (40 μl final volume) contained 10 mM substrates, 100 mM phosphate buffer containing 3 mM of sodium azide (NaN3) and 0.5% Triton X-100, pH 7.4, and 0.5 μg of enzyme or as indicated. Since the formation of the product (fatty acid) was linear with time for at least 24 h under the standard conditions, the reaction mixture was incubated for 18-20 h and the reaction was stopped by cooling on ice. Free fatty acid (FFA) was determined by means of the NEFA-C kit (WAKO chemicals, Neuss, Germany) according to the instructions of the manufacturer.
Experiment A: Didecanoyl-PC was incubated with the purified protein at different time of storage and free fatty acid release was measured. Enzymatic reactions were carried out with 0.5 μg of the purified protein for 20 h at 37° C.
Experiment B: Free fatty acid release from phospholipids, didecanoyl-PC (Dideca-PC), dipalmitoyl-PC (Dipalmi-PC), phosphatidylinositol (PI), phosphatidylethanolamine (PE) and lysophosphatidylcholine (Lyso-PC) was measured. Enzymatic reactions were carried out with 0.5 μg of the purified protein (stored at 4° C. for 15 w) for 18-20 h at 37° C.
Experiment C: The purified protein (stored at 4° C. for 16 w) was preincubated at room temperature or 37° C. for 15 min with released materials (0.5 μg) induced from neutrophils by PMA before incubation with Didecanoyl-PC. Enzymatic reactions were carried out with 0.5 μg of the protein for 20 h at 37° C. and free fatty acid release was measured.
Analyses of the pH optimum, Km and Vmax. The purified protein (0.5 μg) was added to tubes containing Didecanoyl-PC at varying pH (4.0-9.0). The Km and Vmax were calculated from Hanes plots of s/vi on Didecanoyl-PC concentration (s).

B1: HPLB-II: Novel phospholipase B from human neutrophil granules; about 130 kDa oligomer of 25 and 45 kDa fragments of hypothetical protein FLJ22662 (protein)
chain 1: MPAEKTVQVKNVMDKNGDAYGFYNNSVKTTGWGILEIRAGYGSQTLSNEIIMFVAGFLEGYLTAPHMNDHYTNLYPQLITKPSIMDKVQDFMEKQDKWTRKNIKEYKTDSFWRHTGYVMAQIDGLYVGAK
chain 2: VLPGFENILFAHSSWYTYAAMLRIYKHWDFNIIDKDTSSSRLSFSSYPGFLESLDDFYILSSGLILLQTTNSVFNKTLLKQVIPETLLSWQRVRVANMMADSGKRWADIFSKYNSGTYNNQYMVLDLKKVKLNHSLDKGTLYIVEQIPTYVEYSEQTDVLRKGYWPSYNVPFHEKIYNWSGYPLLVQKLGLDYSYDLAPRAKIFRRDQGKVTDTASMKYIMRYNNYKKDPYSRGDPCNTICCREDLNSPNPSPGGCYDTKVADIYLASQYTSYAISGPTVQGGLPVFRWDRFNKTLHQGMAEVYNFDFITMKPILK
- removal of fatty acid from the sn-2 position [1]: removed fatty acid from the sn-2 position
- pH optimum ([2]; didecanoyl-PC as substrate, incubated at 37° C.): 7.4
- Vmax ([2]; didecanoyl-PC substrate, Hanes plots, protein stored for 15 weeks): 21.4 nM/min/mg
- deacylation activity ([2]; freshly purified protein, didecanoyl-PC, dipalmitoyl-PC, PI, PE, Lyso-PC substrates): No activity was detected
- activity increase by pre-incubation with released materials from PMA-induced neutrophils ([2]; pre-incubation 15 min at 37° C.): ~30%
- activity increase by pre-incubation with released materials from PMA-induced neutrophils ([2]; pre-incubation 15 min at room temperature): about 10%
- deacylation activity on didecanoyl-PC ([2]; purified protein stored at 4° C. for some period of time): removed fatty acid from didecanoyl-PC
- deacylation activity on Lyso-PC ([2]; stored purified protein): showed deacylation activity
- deacylation activity on PE ([2]; stored purified protein): showed deacylation activity
- deacylation activity on PI ([2]; stored purified protein): showed deacylation activity
